In the nanobody polyreactivity screen of Harvey et al. (2022):

Test: yeast display, Sf9 membrane polyspecificity reagent, FACS + sequencing; frameworks hold sequencing errors
Method in brief: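 Nanobodies from a synthetic yeast display library (Saccharomyces cerevisiae BJ5465), induced 36–48 hours with galactose, were stained 1 hour at 4 °C with 10% biotinylated, detergent-solubilized Sf9 membrane reagent, enriched on streptavidin microbeads, then FACS-sorted. Anti-HA (expression) and streptavidin (reagent binding) fluorescence set low and high (top ~1%) gates. Polyreactivity labels come from the gate of origin. Genes were colony-PCR amplified, MiSeq 2 × 250 sequenced and filtered by CDR length.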

Row | Sequence | polyreactivity (PSR sort gate)
1 | QVQLVESGAGLVQAGGSLRLSCAASGRTFAFYAMGWYRQAPGKERELVAAITLGASRTYYADSVKGRFTISRDNAKNTVYLQMNSRKPEDTAVYYCNAVGRRNVDSSLNDYWGQGTLVTVSS | low polyreactivity
2 | QVQLVESGAGLVQAGGSLRLSCAASGRTFWSYAMGWYRQAPGKERELVAAIRTSDGITYYADSVKGRFTISRDNAKNTVYLQMNSLKPEDTAVYYCAAENWYNYDYWGQGTQVSVSS | low polyreactivity
3 | QVQLVESGAGLVQAGGSLRLSCAASGRTLKTYVMGWYRQAPGKERELVAAITCGGRTYYADSVKGRFTISRDNAKNTVYLQMNSLKPEDTAVYYCNAQLYWYRYWYLFDNTSFDYWGQGTQVTVSS | low polyreactivity
4 | QVQLVESGAGLVQAGGSLRLSCAASGSIFDDYAMGWSRQAPGKESELVAAISSSGTSTYYADSVKGRFTISRDNAKNTVYLQMNSLKPEDTAVYYCNRGLAARVGSGDYWGQGTQVTVSS | low polyreactivity
5 | QVQLVESGAGLVQAGGSLRLSCAASGSIFQPDAMGWYRQAPGKERELVAAITNCGSTYYADSVKGRFTISRDNAKNTVYLQMNSLNPEVTAVYYCAADVQSSHEYDYWGQGTQVTVSS | low polyreactivity
6 | QVQLVESGAGLVQAGGSLRLSCAASGSISRYYAMGWYRQAPGKERELVAAISVSGGSTYYADSVKGRFTISRDNAKNTVYLQMNSLKPEHTAVYYCKKVRLSDYDWGQGTQVTVSS | high polyreactivity
7 | QVQLVESGAGLVQAGGSLRLSCAASGSTFCRYVAMGWYRQAPGKERELVAAISVSDGDTYYADSVKGRFTISRDNAKNTVYLQMNSLKPEDTAVYYCAAESFYGYDYWGQGTQVTVSS | high polyreactivity
8 | QVQLVESGAGLVQAGGSLRLSCAASGSTFGFNTMGWYRQAPGKERELVAAISWSTGRTNYADSVKGRFTISRDNAKNTVYLQMNRLKPEDTAVYYCAARALDKYRFGGRYDYWGQGTQVTVSS | low polyreactivity
9 | QVQLVESGAGLVQAGGSLRLSCAASGSTFGINAMGWYRQAPGKERELVASIRGDGGSTYYADSVKGRFTISRDNEKNTVSLQMNSLKPEDTAVYYCNKDDFSSPGENRYHSDPYDSWGQGTQVTVSS | low polyreactivity
10 | QVQLVESGAGLVQAGGSLRLSCAASGSTFGRNAMGWYRQPPGKERELVASISSGGSTYYADSVKGRFTISRDNAKNTVYLQMNSLKPEDTAVYYCAKDWVYEISYYYYELDYWGQGTQVTVSS | low polyreactivity
11 | QVQLVESGAGLVQAGGSLRLSCAASGSTFVINAMGWYRQPPGKEREFVADIDYRGGSTNYADSVKGRFTISHDNAKNTFYLQMNSLKPEDTAVYYCAAARVTIRSSHWSVDYWGQGTQVTVSS | low polyreactivity
12 | QVQLVESGAGLVQAGGSLRLSCAASGSTFWWNTMGWYRQAPGKERELVAAITTGGGTYYADSVKGRFTISRDNAKNTVYLQMNSLKPEDTAVYYCAATVRSYGWYAYHYSTYGYWGQGTQVTVSS | low polyreactivity
13 | QVQLVESGAGLVQAGGSLRLSCAASGYTFYFYAMGWYRQAPGKERELVAAITGGGTTSYADSVKGRFTISRDNAKNTVYLQMNSLKPEDTAVYYCNVLFADKSDYCGQGTQVTVSS | low polyreactivity
14 | QVQLVESGAGLVQAGGSLRLSCADSGIIFSSNAMGWYRQAPGKERELVASITSAGNTYYADSVKGRFTISRDNAKNTVYLQMNSLKPEDTAVYYCYARYYYQYFHFSWSYPYGSWGQGTQVTVSS | high polyreactivity
15 | QVQLVESGAGLVQAGGSLRLSCAPSGFTFSWYVMGWYRQAPGKERELVAAITSSGGRTYYADSVKGRFTISRDNAKNTVYLQMNSLKPEDTAVYYCAARFKRGLGDSWGQGTQVTVSS | high polyreactivity
16 | QVQLVESGAGLVQAGGSLRLSCDASGRTVNIYAMGWYRQAPGKERELVADISYSDGSTDYADSVKGRFTISRDNAKNTVYLQMNSLKPEDTAVYYCAAYYYYYYGFGQRYYSWGQGTQVTVSS | low polyreactivity
17 | QVQLVESGAGLVQAGGSLRLSFAASGRTFRGYAMGLYRQGPGKEREWVAAISSGGSTYYADSVKGRFTISRDNAKNTVSLQMYSLKPEDTAVYYCARAVGNYRTLEFDYWGQGTQVTVSS | low polyreactivity
18 | QVQLVESGAGLVQAGGSRRLSCAASVLIFAWYAMGWSRQAPGNERELVAAITGTGSSTYYADSVKGRFTISRDNAKNTVYLLLNSLKPDDTAVYYCAPTSLPRYYYWGQGTQVTVSS | low polyreactivity
19 | QVQLVESGAGLVQAGVSLRLSCAASGSIFADYAMGWYRQAPGKERELVAVISRRGGTTYYADSVKGRFTISRDNAKNTVYLPMNSLKPEDTAVYYCAARRSFNEYDYWGQGTQVTVSS | high polyreactivity
20 | QVQLVESGAGLVQAGVSLRLSCAPSGFTFTGYAMGWYRQSPGKERELVASISKSDGSTYYAESVKGRFTISRDNAKNTVYLQMNSLKPEDTAVFYCAADANTRGSKGRLTHYDYWGQGSQVTVSS | low polyreactivity
21 | QVQLVESGAGLVQARASHRLSCAASGSTLYAYAIGCSRQEPGKEREMVAAISGTGGSTYYADSVKGRFTISRDNAKNTVYLQMNTLKPEDTADYYCAAYYNYFGQRYYYWGQGTQVTVSS | high polyreactivity
22 | QVQLVESGAGVVQAGGSLRLSCAASGSTFYRYAMGWYRQAPGKERELVATITNSGGSTYYADSVKGRFTISRDNAKNTVYLQMNSLKPEDTAVYYCARVRSRNTGYYYWGQGTQVTVSS | high polyreactivity

Row | Sequence | polyreactivity (PSR sort gate)
23 | QVQLVESGEGLVQAGGSLRLSCAASGIFPYNAMGWYRQAPGKEREFVAGISRRGGSTYYADSVKGRFTISRDNAKNTVYLQMNSLKPEDTAVYYCAAGTYHKVVRRWASYYYWGQGTQVTVSS | high polyreactivity
24 | QVQLVESGGALDQAGGSLRLTCAASGFIFGVNAKGWYRKAPGKERELVAAITARSGSTYYADSVKGRFTISRDNAKNTVYLQMNSLKPEDTAVYYWATPVYRSTYEYDYWGQGTQVTVSS | low polyreactivity
25 | QVQLVESGGALDQAGGSLRLTCAASGFIFYFYAKGWYRQAPGKERELVAAIDSAGSTNYADSVKGRFTISRDNAKNTVYLQMNSLKPEDTAVYYCAREPDSYVSWRSRYNYWGQGTQVTVSS | low polyreactivity
26 | QVQLVESGGALLQAGGSLRLSCAASGGTFYDYAMGWYRQAPGKERELVAAISASGDSTYYADSVKGRFTISRDNAMNTVYLQMNSLKPEDTAVYYCAAEFTAFDGFDYWGQGTQVTVSS | low polyreactivity
27 | QVQLVESGGALVLAGGSLRLSCAASGFTFQYYAMGWYRQAPGKERELVAAIDWTGGSTYYADSVKGRFTISRDNAKNTVYLQMNSLKPEDTAVYFCNRELTSPRRWHVSRAYDYWGQGTQVTVSS | low polyreactivity
28 | QVQLVESGGALVQAGGRLRLSCAASGRTFRAYAMGWYRQAPGKERELVAAITSGGSTYYADSVKGRFTISRDNAKNTVYLQMNSLKPEDTEVYYCNRRGWSRTHQYDYWGQGTQVTVSS | high polyreactivity
29 | QVQLVESGGALVQAGGSLRISCAASGLTFKLYTMGWYRQAPGKERELLAAISRSGTRTYYADSVKGRFTISRDNAKNTVYLLMNSLKPEDTADYYCAARTDGYRNNYWGQGTQVTVSS | high polyreactivity
30 | QVQLVESGGALVQAGGSLRISCAASGRIFDGYTMGWSRQAPGKERELVAAITSGGGSTYYADSVKGRFTISRDNAKNTVYLQMNSLKPEDTAVYYCAAYRRNTYWGQGTQVTVSS | high polyreactivity
31 | QVQLVESGGALVQAGGSLRLNCAASGRTFGYNAMGWYRQAPGKERELVAAITIGGSTNYADSVKWRFTISRDNAKNNGYLQMNSLLPEDTAVYYCAAYDTLLYWVEFYYWGQGTQVTVSS | low polyreactivity
32 | QVQLVESGGALVQAGGSLRLSCAASGFTFPPSARGWYRQAPGKERELVARITWSGDRTYYADSVKGRFTISRDNAKNTVYLQMNSLKPEDTAVYYCAARRLPRKERKLYYWGQGTQVTVSS | high polyreactivity
33 | QVQLVESGGALVQAGGSLRLSCAASGISFSWYAMGWYRQAPGKEREFVAAISRGGTSTYYADSVKGRLTISRDNAKNTVYLQMNSLKPEDTAVSYCAVQWLYPYDYWGQGTQVTVSS | high polyreactivity
34 | QVQLVESGGALVQAGGSLRLSCAASGITFKPYGMGRYRQAPGKETELVADITSGGITYYADSVKGRFTISRDNAKNTVYLQMNSLKPEDTDVYYCAAVGGRSSYRLDYWGQGTQVTVSS | low polyreactivity
35 | QVQLVESGGALVQAGGSLRLSCAASGLIYSHNAMGWYRQAPGKERELVAAISWRGGRTYYADSVKGRFTISRDNAKNTVYLLMNSLKPEDTAVFYCNKYYGKRYDYLGQGTQVTVSS | high polyreactivity
36 | QVQLVESGGALVQAGGSLRLSCAASGNIFVYYAMGGYRQAPGKERELVAAITSDVSTYYADSVKGRFTISRDNAKNTVYLQMNSLKPEDTAVYYCATTGYGSYVIYWGQGTQVTVSS | low polyreactivity
37 | QVQLVESGGALVQAGGSLRLSCAASGNTFRGYTMGWYRQAPGKEREFVAAISWSGGRTNYADSVKGRFTISRDNAKNTVYLQMNSLTPEDTAVYYCGRDYRARRWGMDYWGQGTQVTVSS | high polyreactivity
38 | QVQLVESGGALVQAGGSLRLSCAASGRIFGVYAMGWYRQAPGKERELVAAITRGASTYYADSVKGRFTISRDNSKNTVYLQMNSLKPEDTAVYYCAVSQYRGIYRKYDYWGHGTQVTVSS | high polyreactivity
39 | QVQLVESGGALVQAGGSLRLSCAASGRTFAKYAMGWYRQAPGKERELFAAINSSGGSTYYADSVKGRFTISRDNAKNTVYLQMNSLKPEDTAVYYCADLGIGSYRRYSGYDYWGQGTQVTVSS | low polyreactivity
40 | QVQLVESGGALVQAGGSLRLSCAASGRTFGLTAMGWYRQAPGKERELVAAITWSDDDTYYADSVKARFTNSRDNAKNTVYLQMNSLKPEDTAVYYCAATYPYRQYDYWGQGTQVTVSS | low polyreactivity
41 | QVQLVESGGALVQAGGSLRLSCAASGRTFYPNAMGGYRQAPGKERELVAGSSYGTGSTYYADSVKGRFTISRDNAKNTVYLQMNSLKAEDNAVYYCAADNWAVNAYYWYIYDYWGQGTQVTVSS | low polyreactivity
42 | QVQLVESGGALVQAGGSLRLSCAASGSIFGSYALGWYRQAPGKERELVASITRVDSTNYADSVKGRFTISRDNAKNTVYLQMNSLKPEDTAVYYCAADITSPAYATYDYWGQGTQVTVSS | low polyreactivity
43 | QVQLVESGGALVQAGGSLRLSCAASGSIFRFYAMGWYRQAPGKERELVAAISWSGGSTYYADSVKGRFTISRDNAKNTVYLQMNSLKPEDTAVYYCNTRYYGGFDSWGQGTQVTVSS | high polyreactivity
